Here are results for 50 sequences from the domain aggregation screens of Martell et al. (2025).
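Also: 20 min heating vs room temperature control held 20 min.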

This series is described as follows: soluble fraction after stress (log2 fold change); higher = more stays soluble; pooled small domains, quantitative proteomics. The settings on record: stress: 75 degC.
With “HMQLPTNAAAILRYLSSGAVKGVGSATAVRIVEKFGEETLNILEQDPLRLAEIRGISRDKAKKIGEDFASQ”, the “soluble fraction (log2)” value is -0.322.
Then “HMQLSMLPYGFARRHGVLLVEQDEQPTLIHRAGITATVIAEVQRVAGQIDAWRLVDDARFDQQLAEVYRD”, with -1.33.
With “HMQLTPAQHAILAYAIEHTGGKIEWFPDNIKGGARTKVLEGLFNKALITRDSTDWFVAAEGYDALGR” the figure was -0.949; with “HMQLYSLEVLSKKKVDLIENNKNLINLYFNKENGEYSYRLIFKNRKELYQVKDTLDNSSDVVSIKLDL”, -2.27; with “HMQMGLNEAYRVLHVSPDAPWREVQSAYKERMAKSHPDKVSHLGEELQEKAKELTVEINKAYNTIKRYKK”, 0.47.
With “HMQMKDRILRIMEHEGISPSKFAEEIGIQRSAMSHIISGRNNPSLDVLTKIMQRFTYVDTDWLLFGKGSMV” the figure was -1.99; with “HMQMPDLTGKPRAEAVTTLAALGFTDVKFLDASAGDEPLDYVADQVVRTSPEAGAALASGQQITIYLAT”, -0.203.
Regarding “HMQMSDTSMIRDLVLQVLAENPQSIEDFKNGKDRAVGFLVGMVMKKSQGKANPQITNQMIVEELKK”, the “soluble fraction (log2)” value is -0.228.
With “HMQMSERENTILLTKRYIERGEYERAMNLLDSLLIKNALDEEALAMIDEIIALKAGASLQDFPRY” the figure was -0.797; with “HMQMTTPQMVPLFTDLSVDDSASIIKDLERQAVPYQIKSDGAIIMVPKDKVTRLRMKLAESGLPK”, 0.488.
As to “HMQNDDLTKLDGIGPYIEQRLNDIGIYNYEQLSKLNTEDIQKITELIDFFPGRIERDNWVSQAQLLKI”, the “soluble fraction (log2)” value was -0.515.
Then “HMQNDILIQADEIVGDYFDMDKEALKMNKQAVIADIEKRQATAQGDEASALHYAKQKVENEFEDDGSQKD”, with 0.109; and “HMQNKFLDIVGEIEVKAVDYYLLKDTSGLVIKFPKNLVFANGLKIADNKIGLTVSLYGAWVHEET”, with -1.08.
Then “HMQNKYIIKQGNSGELVEVLQELLNLKQDGVFGPQTKKAVIAFQQKHKLVADGIVGPMSWRKLNFNPEELF”, with -2.36; and “HMQNLISSDEAKNIALQHANLTDNQVTFIKVSKDYDDGIHIYEVEFHYNNREYNYDINAINGTILSYEQ”, with -1.34; and “HMQNNKITIYISGAVNRPGIVTIESDKRLYDAVELLGGTTKEADLNGVNLSVRLEDEQHYIIPKIGEA”, with -0.432.
With “HMQNNWFYEENGQRKGPVSENEMVQFIKSSVISHGTSVWKQGFPDWLKVENTDLRVHLDNSAP”, the “soluble fraction (log2)” value turned out to be 0.105.
Then “HMQNREQNILDGKSILDKELKRVGLLNQSAAIMAQEMKFNSQDDLFAALGSGATRIGQIINHLQKQS”, with -0.00272; and “HMQNSMTTTPDVVGKTGTFAEQMLKAANLNVQFAGDSSGKVVAQDVEAGTSAAYGTIITLTMDS”, with 0.693; and “HMQNVKIKAEVKGEVISPGVYELDEESRIQDLIDASGGFSDKAYYDNINLSMKLKDEMVLVVYDKDKI”, with -0.271.
In the case of “HMQPADYSDLYAAAKSAGEADMRAAFALTDKQERTAAVNAARETIKAALSEEQLADANLGSALKKLEAGV”, the “soluble fraction (log2)” value was -0.122.
Then “HMQPASPELNNQEKKVLQALPENEVIHIDELSDKIQIPVGELLTVLLSLEMKETVIQEPGKFFRRR”, with -1.29; and “HMQPDFLDAKASLALLGVRPQTLYAYVSRGAIRSVPQPGTKAHLYSRSDIERVMARAAARAG”, with -1.34.
Consider “HMQPDYRVLYSNFSDKDGGAIVAALEKMNVPYKFSEGGSAILVPAGQVHQARLKLAADGLPK”, for which the “soluble fraction (log2)” value amounted to 0.0648.
Then “HMQPLGHDLTERELDVLALMVTGMNNSEIADKLVVSRSTIKYHVSNILSKLQATSRTEAVAYALQQNLVH”, with -2.51.
Then “HMQPQIDFEIDVEVRASSLRIVAAPNSDVLVATVGRGEHVVQLTYPKDGWVMIRTADDRVGFVPESLLL”, with -2; and “HMQPQYSVLFSNIEEKDGGSIITLLQQGNVPYKVENGGTTILVPANRANELRLTLAAQGLPK”, with 0.449; and “HMQPVLSDAEVNDLKNIAGGERGYNQLMDWAGNNLTAQDAKSYDDVLATGNKAAISFAIKALMGQYEDAN”, with -0.0478.
With “HMQQEAVNLVQSRGQQAIEPVHIMQGVMKVGENVTNFIFQKLGMNGQQVALVVDKQIDSLPKVSGGEPYL” the figure was 0.124; with “HMQQEAVSGKLLQLDLAKKEGRLSTDLGREVLFHIPKPELFVHLSVGQRIIIKLDAGQEAVGV”, -0.178; with “HMQQELDAFKLLITVSGVGPKAAMAVLSVLPPDRLSIAVSSGDVKSIQSAQGVGKKTAERIVLELKDKM”, -0.906.
As to “HMQQIEIEEPITVKNLSAVAGLKASEIIAKLMKLGVMSTINQVMERQHAEEIAGEYGFELVVK”, the “soluble fraction (log2)” value is -0.132.
For the sequence “HMQQISDPQVLRPMAEEVLHQSQKVVQDYKGGNKNAFHALVGQMMKKTQGKGNPQVIGQVLSELLDE”, the “soluble fraction (log2)” value was 0.98.
Then “HMQQKNWIVRDGDGKIYGPFTTEQVLVQIDRGYFVGGEEVALYPGGRWIAISGAPEFYDRLLDALAMEG”, with -0.995; and “HMQQQLLHIVFGGELKDVTGIEFEDLSKMDFVGAFSNYKDAYDAWKSAAQRTVDHAEMRYFILHAHKLL”, with -6.11.
Then “HMQQRTVEHVDTAVEALALSIGERAGVDLPYMAHLTGKTQEDLIEDLTGVIFPVPGTEPLRYVTADDYLS”, with 0.181; and “HMQQSVSSLVRRYMLQTIPGINFSLKSTALALNMSDRTLQRKLLSENTSYQIILDDVRKELAIKYLKE”, with -3.23.
With “HMQQVIQSGQKVQLMATDGSFQVSAEGVALKNGSVGEVIGVRMPSGRVISGVVSASGAVEVR” the figure was 0.125; with “HMQQVLGDVNEDDKVDFLDAIVVLRHDAEIIQLTDNQMKAAEVNKDGKVDFLDAIMILRYDAEIIGS”, -0.0321; with “HMQRDDMQIDRLIQIVFLLLSRNNLTAKQLAEELGVSTRTIYRDINILSVAGIPITSQKGYGGGLSLLQG”, -0.608.
Turning to “HMQRDELRYDQFLTALQNKEFTQLNVRFDDYTYLVTGTFQSGRPFSTRGPVSEEFIRLIESSGVQVTWLPM”, the “soluble fraction (log2)” value is -1.65.
On to “HMQRDERYVYHTVLAGETIYSLSRKFNVTMDELLESNPALRSGVLTTGSEIRVLKAQMAQNFD”, for which the “soluble fraction (log2)” value was -1.25.
Then “HMQRQGTVATQQTPLNIRSQPSLSAQVIGQAPKGATVAILGESGDWYQIRYQNITGYSSKQYI”, with 0.0804.
Turning to “HMQRSVEDVFVQLRNGMDTYDMTQIEDALRILHGMELSTAQRDLLDKVQEAYNDLEYETGAALLAGFERIK”, the “soluble fraction (log2)” value turned out to be 0.134.
As to “HMQRYFINEPVPEDQRLVLPKDIAHHLVDVLRAEQNDELEVALNDQKVYLARLISLNPATVELQSDLG”, the “soluble fraction (log2)” value amounted to 0.465.
Regarding “HMQRYFLEEAYQPSEKFELSAEAFHHIVHVMRMKPKDRVYLAFSDQQVIIAEITEITEEKVYLTEIEKEE”, the “soluble fraction (log2)” value was -3.23.
With “HMQRYYDVLGLQKGVSPEELKKTYRELSKKYHPDAHHNSPLRDLAEAKFKEINEAYEKIKEFLDNNF” the figure was -0.207; with “HMQSAKLSYSDFMQKVNAGDVVSVKIQGPKISGVTTGGGKFMTYAPEDPTLVSTLMQKKVEVMAEP”, 0.139; with “HMQSAMALTKDLIEQQGKYYHRGQPFTGVGFAKNKKGKFVTEEPFKNGLLHGKRVNYDHNGHVLAREK”, -0.105.
With “HMQSEESTHIGERMLNQALRAMHVEPSAVKEKQWEKLIRDYSVKNKQDILTDIGLGKRQSVMVAHQLLAI” the figure was -0.165.
